Experimental data taken from paper PMC6416295.

Legend:
[1] = test system: HlyU (Vibrio vulnificus MO6-24/O); test: EMSA; conditions: 10 mM Tris-Cl pH 7.5, 50 mM KCl, 5 mM MgCl2, 5% glycerol, 0.1 ug poly(dI-dC) in 20 ul, 5 nM DNA, 25 C, 0.5 h; 6% native PAGE
[2] = test system: HlyU (Vibrio vulnificus MO6-24/O); test: EMSA; conditions: 10 mM Tris-Cl pH 7.5, 50 mM KCl, 5 mM MgCl2, 5% glycerol, 0.1 ug poly(dI-dC) in 20 ul, 5 nM DNA, 25 C, 0.5 h; 6% native PAGE; remark: listed apart in the source

Substance: PrtxA 264-bp
- Kd [1]: 25.2 nM
- Kd [2]: 54.8 nM
